Data set [1] has as its target ZIKV NS4A N-terminal peptide (4–58) (Zika virus (strain MR-766)). In words: static light scattering; Debye plot of KC/Rθ against protein concentration, Zetasizer Nano-ZS, 25 °C; aqueous solution without detergents or liposomes; n = 5 independent samples per concentration.
Data set [2] concerns the molecule itself. In words: SEC; Superdex 200 Increase 10/300 GL, 20 mM Tris-HCl, 300 mM NaCl, pH 8, with 4 mM n-decyl-β-D-maltoside. A general note: Size exclusion chromatography separates by hydrodynamic size, large species first.

For “ZIKV NS4A N-terminal peptide (4–58) (domain or fragment)”, the stoichiometry N in data set [1] was found to be 3.

B1: full-length ZIKV NS4A protein (1–127) (natural protein)
chain: GAALGVMEALGTLPGHMTERFQEAIDNLAVLMRAETGSRPYKAAAAQLPETLETIMLLGLLGTVSLGIFFVLMRNKGIGKMGFGMVTLGASAWLMWLSEIEPARIACVLIVVFLLLVVLIPEPEKQR
notes: Zika virus NS4A protein, strain MR-766, full length, residues 1-127 of NS4A; numbers count on: the mature NS4A protein (127 residues); Vector pNIC28-Bsa4; a TEV protease cleavage site stands between the His6 tag and the protein; No cleavage is described; also called full-length NS4A; source: E. coli BL21 (DE3) Rosetta T1R, purified (Ni-charged IMAC and SEC in 4 mM n-decyl-β-D-maltoside)
With B1, in data set [2], the binding result is “binds”.

The stoichiometry N is a count of units in the complex or per binding partner.

For the origin of these results see publication PMC8147241, “Trimerization of the N-Terminal Tail of Zika Virus NS4A Protein: A Potential In Vitro Antiviral Screening Assay” (Membranes, 2021).
